Consider one protein from PMC5216522, “Pyruvic oxime dioxygenase from heterotrophic nitrifier Alcaligenes faecalis is a nonheme Fe^(II)-dependent enzyme homologous to class II aldolase” (Scientific Reports, 2017).

Substrate in the data set: CC(=NO)C(=O)O
Nature of the data set: nitrite production by diazo-coupling, Hanes-Woolf plot. In kind it is biochemical, Alcaligenes faecalis. The settings on record: Fe(II)-reconstituted enzyme, 10 mM Tris-HCl pH 8.0, 1 mM sodium ascorbate, 100 μM FeSO4, 37 °C, co-substrate O2, kcat apparent, per subunit.

B1: rPOD (recombinant pyruvic oxime dioxygenase) (Alcaligenes faecalis) (protein)
chain: MDTPLRDKSYFDERATKEMATHLQQVQRDTRETMAFACRILAMTEQEAGLAGQISVRSERPGAYWTLRFGLGFDEATPEDFIEVDRDLNTLSGEGMANPATRFHLWVYEARPDVNSIIHTHSPWATVLATARQPLVISQMDMTPLHNDCAFLGEWPGVPIADQEGVIISKALGDKRAIILAHHGYLTAGKSCQEATYLSVYLERAARLQVRAQAAFGPLTPVDDTLAAEAHDYLLKPSIVNATFDYWSRQTQGIAPLTKTR
notes: full length, 261 residues, 29,106 Da; pET21a(+) NdeI/XhoI with own stop codon, untagged; expressed in E. coli BL21(DE3)-CodonPlus; homotetramer (135 kDa by gel filtration); Fe(II)-reconstituted
For orientation: Km means the substrate concentration at which the rate is half of its maximum. In general, kcat refers to the maximal rate divided by the concentration of active sites. Turning to B1, the Km stood at 470 µM and the kcat turned out to be 4.69 s⁻¹.
